Measurements: paper PMC10394140

Target: Re-PAX5 P80R (Homo sapiens, UniProt Q02548 1-391, P80R)
Experiment: EMSA

Chain of Re-PAX5 P80R (Q02548 whole entry P80R): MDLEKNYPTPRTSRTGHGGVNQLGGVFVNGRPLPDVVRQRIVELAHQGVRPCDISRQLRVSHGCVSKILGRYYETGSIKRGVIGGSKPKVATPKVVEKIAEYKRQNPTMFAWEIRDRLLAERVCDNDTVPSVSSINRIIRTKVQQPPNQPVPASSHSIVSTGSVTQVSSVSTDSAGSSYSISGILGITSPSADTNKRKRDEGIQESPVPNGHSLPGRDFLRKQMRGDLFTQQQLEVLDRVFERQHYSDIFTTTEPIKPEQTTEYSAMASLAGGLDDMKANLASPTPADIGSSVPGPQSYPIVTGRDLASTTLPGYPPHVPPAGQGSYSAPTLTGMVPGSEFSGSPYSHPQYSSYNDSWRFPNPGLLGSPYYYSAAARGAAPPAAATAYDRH

B1: Probe-1 (GINS1 promoter site1) (dsDNA)
DNA 1: GGTGCGGTGGCTCACGCTGTAATTCC
DNA 2: GGAATTACAGCGTGAGCCACCGCACC
**Q.** Does B1 bind?
**A.** no binding
